Two molecules from PMC4856295 (Nature, 2016) can be followed below.

By stoichiometry N is commonly meant a count of units in the complex or per binding partner.

The target of data set [1] is TATA-binding protein (TBP), subunit of endogenous human TFIID (human, UniProt P20226 1-339). Briefly: cryo-EM structure.
The data set “cryo-EM structure” concerns the molecule itself. Briefly: cryo-EM structure.

Sequence of TATA-binding protein (TBP), subunit of endogenous human TFIID (P20226 whole entry): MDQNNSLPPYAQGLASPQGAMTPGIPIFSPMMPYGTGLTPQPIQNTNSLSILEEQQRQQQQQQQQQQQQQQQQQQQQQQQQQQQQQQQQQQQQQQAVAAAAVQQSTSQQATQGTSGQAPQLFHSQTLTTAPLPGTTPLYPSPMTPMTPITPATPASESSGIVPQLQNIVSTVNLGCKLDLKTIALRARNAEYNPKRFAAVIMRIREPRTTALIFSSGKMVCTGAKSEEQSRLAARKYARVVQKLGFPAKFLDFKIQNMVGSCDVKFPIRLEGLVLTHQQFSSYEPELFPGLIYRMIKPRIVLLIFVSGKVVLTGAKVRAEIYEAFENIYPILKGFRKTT

B1: human TFIIA (conserved three-subunit core TFIIA) (complex)
chain 1: ANSANTNTVPKLYRSVIEDVINDVRDIFLDDGVDEQVLMELKTLWENKLMQSRAVDG
chain 2: GAEDGQVEEEPLNSEDDVSDEEGQELFDTENVVVCQYDKIHRSKNKWKFHLKDGIMNLNGRDYIFSKAIGDAEW
chain 3: AYQLYRNTTLGNSLQESLDELIQSQQITPQLALQVLLQFDKAINAALAQRVRNRVNFRGSLNTYRFCDNVWTFVLNDVEFREVTELIKVDKVKIVACDGKNTGSNTTE
As to B1, the binding result in data set [1] is given as “binds”.

B2: TAF6, subunit of endogenous human TFIID (natural protein)
chain: not shown
Regarding B2, the “stoichiometry N” value in “cryo-EM structure” turned out to be 2.
